Each block holds one substance with its values, some of them ahead of it.
Assays:
[1] = target: wdfy3_human WDFY3 (UniProt Q8IZQ1)
[2] = target: mlp3b_human MAP1LC3B (UniProt Q9GZQ8)
[3] = target: mlp3c_human MAP1LC3C (UniProt Q9BXW4)
[4] = target: mlp3c_human MAP1LC3C (UniProt Q9BXW4); remark: listed apart in the source

Chain of UniProt Q9BXW4 (Q9BXW4 whole entry): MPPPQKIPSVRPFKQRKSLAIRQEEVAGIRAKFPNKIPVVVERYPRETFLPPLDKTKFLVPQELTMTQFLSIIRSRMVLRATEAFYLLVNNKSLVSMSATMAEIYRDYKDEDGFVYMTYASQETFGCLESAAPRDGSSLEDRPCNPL
Chain of UniProt Q8IZQ1 (Q8IZQ1 whole entry): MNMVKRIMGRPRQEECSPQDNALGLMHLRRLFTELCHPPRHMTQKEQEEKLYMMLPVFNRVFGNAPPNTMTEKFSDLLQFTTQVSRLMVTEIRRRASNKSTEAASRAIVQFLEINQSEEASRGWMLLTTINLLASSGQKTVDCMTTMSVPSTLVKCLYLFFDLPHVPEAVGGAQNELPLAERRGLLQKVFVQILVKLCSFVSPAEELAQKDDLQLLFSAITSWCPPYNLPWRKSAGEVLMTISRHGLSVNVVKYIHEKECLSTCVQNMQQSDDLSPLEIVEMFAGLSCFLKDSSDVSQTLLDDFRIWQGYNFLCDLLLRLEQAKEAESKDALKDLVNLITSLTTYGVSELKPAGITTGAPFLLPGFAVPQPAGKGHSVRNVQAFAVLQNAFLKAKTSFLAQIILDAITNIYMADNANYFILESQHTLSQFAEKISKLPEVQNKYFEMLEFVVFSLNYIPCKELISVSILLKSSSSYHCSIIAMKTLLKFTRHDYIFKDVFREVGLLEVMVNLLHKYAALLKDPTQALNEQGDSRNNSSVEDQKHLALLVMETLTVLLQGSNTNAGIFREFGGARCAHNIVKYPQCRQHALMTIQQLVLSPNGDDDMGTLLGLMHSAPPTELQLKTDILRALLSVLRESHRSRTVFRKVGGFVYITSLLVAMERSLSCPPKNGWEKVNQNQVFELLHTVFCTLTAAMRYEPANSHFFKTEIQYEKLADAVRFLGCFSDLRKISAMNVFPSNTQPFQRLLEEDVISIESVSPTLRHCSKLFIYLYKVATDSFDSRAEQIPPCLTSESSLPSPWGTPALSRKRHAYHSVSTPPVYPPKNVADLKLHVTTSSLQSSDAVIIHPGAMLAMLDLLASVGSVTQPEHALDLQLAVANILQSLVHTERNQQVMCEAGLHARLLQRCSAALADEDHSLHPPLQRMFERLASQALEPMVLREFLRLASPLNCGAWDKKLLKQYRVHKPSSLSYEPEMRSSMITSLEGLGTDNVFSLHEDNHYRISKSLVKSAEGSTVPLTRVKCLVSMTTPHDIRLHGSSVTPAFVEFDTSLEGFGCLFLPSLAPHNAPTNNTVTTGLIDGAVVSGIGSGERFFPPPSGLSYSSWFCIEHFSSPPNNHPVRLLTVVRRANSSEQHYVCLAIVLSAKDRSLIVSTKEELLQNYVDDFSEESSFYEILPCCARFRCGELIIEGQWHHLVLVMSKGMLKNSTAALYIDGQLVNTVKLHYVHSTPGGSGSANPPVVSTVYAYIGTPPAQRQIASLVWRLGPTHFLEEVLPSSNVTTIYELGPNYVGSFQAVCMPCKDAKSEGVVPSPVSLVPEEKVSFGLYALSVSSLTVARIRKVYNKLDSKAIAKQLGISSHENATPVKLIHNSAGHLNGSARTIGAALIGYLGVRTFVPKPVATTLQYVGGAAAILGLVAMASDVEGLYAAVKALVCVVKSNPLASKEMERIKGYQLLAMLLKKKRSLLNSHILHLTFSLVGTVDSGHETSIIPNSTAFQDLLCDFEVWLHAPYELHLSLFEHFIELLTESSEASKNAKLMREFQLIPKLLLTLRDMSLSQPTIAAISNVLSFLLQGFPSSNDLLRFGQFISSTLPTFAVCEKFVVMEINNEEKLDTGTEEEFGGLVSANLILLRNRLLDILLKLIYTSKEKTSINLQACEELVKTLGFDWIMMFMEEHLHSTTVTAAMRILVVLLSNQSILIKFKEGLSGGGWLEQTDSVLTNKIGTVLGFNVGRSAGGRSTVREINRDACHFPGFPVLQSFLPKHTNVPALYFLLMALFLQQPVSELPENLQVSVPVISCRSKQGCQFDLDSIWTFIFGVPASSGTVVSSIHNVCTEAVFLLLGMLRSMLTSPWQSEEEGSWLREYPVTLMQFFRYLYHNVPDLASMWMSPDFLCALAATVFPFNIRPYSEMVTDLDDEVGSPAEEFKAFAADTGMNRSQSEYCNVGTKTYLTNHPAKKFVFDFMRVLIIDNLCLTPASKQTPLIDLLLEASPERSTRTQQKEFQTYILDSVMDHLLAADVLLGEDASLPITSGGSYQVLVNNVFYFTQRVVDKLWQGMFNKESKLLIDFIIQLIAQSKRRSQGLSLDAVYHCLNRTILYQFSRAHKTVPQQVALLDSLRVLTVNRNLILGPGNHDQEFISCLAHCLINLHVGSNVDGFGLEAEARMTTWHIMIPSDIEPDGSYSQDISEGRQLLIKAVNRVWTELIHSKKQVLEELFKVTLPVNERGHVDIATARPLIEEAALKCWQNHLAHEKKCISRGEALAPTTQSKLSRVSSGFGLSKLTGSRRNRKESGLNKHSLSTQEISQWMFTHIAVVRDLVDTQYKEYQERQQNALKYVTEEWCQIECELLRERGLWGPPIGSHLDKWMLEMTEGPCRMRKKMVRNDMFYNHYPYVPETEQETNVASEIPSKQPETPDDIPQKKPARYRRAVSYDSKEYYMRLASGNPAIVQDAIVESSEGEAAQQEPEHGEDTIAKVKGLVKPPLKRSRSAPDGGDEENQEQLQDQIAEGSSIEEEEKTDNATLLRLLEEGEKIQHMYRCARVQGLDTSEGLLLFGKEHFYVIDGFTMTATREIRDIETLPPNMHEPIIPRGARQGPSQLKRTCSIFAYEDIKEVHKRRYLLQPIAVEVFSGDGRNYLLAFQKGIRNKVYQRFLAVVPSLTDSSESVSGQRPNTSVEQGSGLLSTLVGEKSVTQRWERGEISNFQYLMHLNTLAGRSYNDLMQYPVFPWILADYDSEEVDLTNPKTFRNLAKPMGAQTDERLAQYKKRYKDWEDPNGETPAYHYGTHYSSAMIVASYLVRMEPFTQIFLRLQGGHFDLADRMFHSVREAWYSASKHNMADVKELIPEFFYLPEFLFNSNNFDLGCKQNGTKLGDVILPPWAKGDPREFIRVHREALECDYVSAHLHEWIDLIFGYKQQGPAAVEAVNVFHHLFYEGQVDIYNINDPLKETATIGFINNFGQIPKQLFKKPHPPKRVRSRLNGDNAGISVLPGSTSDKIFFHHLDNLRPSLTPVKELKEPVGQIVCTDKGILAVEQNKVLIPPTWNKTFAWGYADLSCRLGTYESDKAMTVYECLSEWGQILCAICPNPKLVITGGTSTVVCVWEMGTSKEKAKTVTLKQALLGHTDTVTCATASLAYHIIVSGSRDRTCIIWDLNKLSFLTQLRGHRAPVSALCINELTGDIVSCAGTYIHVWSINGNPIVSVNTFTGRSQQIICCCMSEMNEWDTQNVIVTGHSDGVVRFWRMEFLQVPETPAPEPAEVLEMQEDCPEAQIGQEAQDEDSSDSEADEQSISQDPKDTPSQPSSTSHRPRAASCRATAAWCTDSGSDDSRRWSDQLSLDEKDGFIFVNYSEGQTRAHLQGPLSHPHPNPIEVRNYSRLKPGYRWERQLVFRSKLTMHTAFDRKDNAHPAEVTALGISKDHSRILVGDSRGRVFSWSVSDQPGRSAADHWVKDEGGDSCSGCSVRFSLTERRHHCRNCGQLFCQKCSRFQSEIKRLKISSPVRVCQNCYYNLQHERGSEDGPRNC

effect of a mutation on the interaction [1]: increasing interaction
Substance: Microtubule-associated protein 1 light chain 3 beta (Homo sapiens) (from UniProt Q9GZQ8) Q26K;H27Y;H57D

effect of a mutation on the interaction [2]: disrupting interaction
Substance: WD repeat and FYVE domain-containing protein 3 (Homo sapiens), Q8IZQ1 F3346A

effect of a mutation on the interaction [3]: decreasing interaction
Substance: WD repeat and FYVE domain-containing protein 3 (Homo sapiens), Q8IZQ1 I3347A

effect of a mutation on the interaction [4]: decreasing interaction
Substance: WD repeat and FYVE domain-containing protein 3 (Homo sapiens), Q8IZQ1 V3349A

— IntAct's records for PubMed 24668264
